Data: PMC2121029
Where two headings read alike, the source gives them in different places.

Experiments:
[1] = target: beta-actin from bovine erythrocytes (bovine) (UniProt P60712); experiment: kinetic simulation
[2] = target: beta-actin from bovine erythrocytes (bovine) (UniProt P60712); experiment: shift of the critical concentration for actin polymerization
[3] = target: beta-actin from bovine erythrocytes (bovine) (UniProt P60712)
[4] = target: alpha-actin from chicken skeletal muscle (chicken) (UniProt P68139); experiment: actin uncapping assay
[5] = target: alpha-actin from chicken skeletal muscle (chicken) (UniProt P68139); experiment: kinetic simulation

koff [1] [s⁻¹] | kon [1] [M⁻¹ s⁻¹] | Kd [2] [nM] | koff [3] [s⁻¹] | half-life of a capped barbed end with PIP2 [4] [s] | koff [5] [s⁻¹] | Substance
0.00095 | 3.9e+06 | 0.08 | 0.00031 | – | – | capping protein of chicken kidney and brain containing the beta2 subunit (CP-beta2) (from UniProt P13127;P28497;P14315-2) (complex)
– | – | – | – | 46 | 0 | capping protein of chicken skeletal (pectoral) muscle containing the beta1 subunit (CP-beta1) (from UniProt P13127;P28497;P14315-1) (complex)
